Reference: publication PMC11059001
pKd: −log10 of the molar value.

How the values were obtained:
complement C1q (human) [1] = target: complement C1q (human) (UniProt P02745); test: MST; fluorescently labelled C1q (RED-NHS) 40 nM; TsCRT, TsCRT^Δ, mutants or P^TsCRT gradient-diluted; 50 mM Hepes, 150 mM NaCl, 2 mM CaCl2, 0.05% Tween 20, pH 7.4; Monolith NT.115, LED power 20%, MST power 50%
complement C1q (human) [2] = target: complement C1q (human) (UniProt P02745); test: MST; IgG incubated with fluorescently labelled C1q (40 nM) alone, no competitor; 50 mM Hepes, 150 mM NaCl, 2 mM CaCl2, 0.05% Tween 20, pH 7.4; LED power 60%, MST power 50%
complement C1q (human) [3] = target: complement C1q (human) (UniProt P02745); test: MST; competitive binding: IgG with fluorescently labelled C1q (40 nM) in the presence of 20 µM TsCRT^Δ, a mutant or P^TsCRT; 50 mM Hepes, 150 mM NaCl, 2 mM CaCl2, 0.05% Tween 20, pH 7.4; LED power 60%, MST power 50%
complement C1q (human) [4] = target: complement C1q (human) (UniProt P02745); test: MST; with 20 uM TsCRT^Δ H46A/K47A/D49A competitor
complement C1q (human) [5] = target: complement C1q (human) (UniProt P02745); test: MST; with 20 uM TsCRT^Δ I140A/G142A competitor
complement C1q (human) [6] = target: complement C1q (human) (UniProt P02745); test: MST; with 20 uM TsCRT^Δ P143A/E144A competitor

Chain of complement C1q (human) (P02745 23-245, chain 1 of 3): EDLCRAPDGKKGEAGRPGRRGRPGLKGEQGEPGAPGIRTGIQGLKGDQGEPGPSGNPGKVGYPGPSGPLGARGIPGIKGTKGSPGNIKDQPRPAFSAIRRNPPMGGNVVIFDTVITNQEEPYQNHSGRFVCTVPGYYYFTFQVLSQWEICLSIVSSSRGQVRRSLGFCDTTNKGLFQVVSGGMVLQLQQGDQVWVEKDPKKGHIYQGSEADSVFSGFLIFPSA
Chain of complement C1q (human) (P02746 28-253, chain 2 of 3, further chain): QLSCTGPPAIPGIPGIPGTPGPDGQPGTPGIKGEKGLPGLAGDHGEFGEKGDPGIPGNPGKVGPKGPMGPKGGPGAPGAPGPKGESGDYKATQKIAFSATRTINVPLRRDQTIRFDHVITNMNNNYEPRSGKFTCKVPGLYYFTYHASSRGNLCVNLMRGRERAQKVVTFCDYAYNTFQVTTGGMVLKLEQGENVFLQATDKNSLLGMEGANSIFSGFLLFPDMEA
Chain of complement C1q (human) (P02747 29-245, chain 3 of 3, further chain): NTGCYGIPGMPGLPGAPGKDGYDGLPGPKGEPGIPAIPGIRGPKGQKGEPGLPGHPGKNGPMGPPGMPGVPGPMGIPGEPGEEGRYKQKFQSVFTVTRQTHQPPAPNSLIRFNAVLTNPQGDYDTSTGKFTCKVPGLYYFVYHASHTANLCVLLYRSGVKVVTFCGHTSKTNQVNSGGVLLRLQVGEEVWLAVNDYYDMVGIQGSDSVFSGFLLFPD

Substance: TsCRT^Δ mutant D129A (domain or fragment)
- pKd (complement C1q (human) [1]): 3.91

Substance: TsCRT^Δ mutant H46A/K47A/D49A (domain or fragment)
- pKd (complement C1q (human) [1]): 4.26

Substance: TsCRT^Δ mutant I140A/G142A (domain or fragment)
- pKd (complement C1q (human) [1]): 4.26

Substance: Trichinella spiralis calreticulin, full-length (natural protein)
- pKd (complement C1q (human) [1]): 3.59

Substance: truncated Trichinella spiralis calreticulin TsCRT^Δ (22-209, GSG linker, 305-364) (domain or fragment)
- pKd (complement C1q (human) [1]): 5.04

Substance: TsCRT^Δ mutant P143A/E144A (domain or fragment)
- pKd (complement C1q (human) [1]): 4.18

Substance: human IgG (antibody)
- pKd (complement C1q (human) [2]): 6.85
- KD of C1q-IgG with P^TsCRT (20 µM) (complement C1q (human) [3]): 172 µM
- KD of C1q-IgG with TsCRT^Δ (20 µM) (complement C1q (human) [3]): 409 µM
- KD of C1q-IgG with the mutant D129A (complement C1q (human) [3]): 0.32 µM

Substance: human IgG
- pKd (complement C1q (human) [4]): 5.40
- pKd (complement C1q (human) [5]): 5.26
- pKd (complement C1q (human) [6]): 5.38
